Data: publication PMC6358511

Biological target: EGFRvIII, biotinylated (human, UniProt P00533 25-30+298-645, V30G;internal_change)
Test: BLI

GGACGGAUUUAAUCGCCGUAGAAAAGCAUGUCAAAGCCGGAACCGUCC (XNA, 2'-fluoro at all C and U; 2'-OH purines; 5' alkyne) [ME07 (alkyne-modified MinE07)]
Kd: 271 nM
